The assay concerns the target full-length recombinant human proteoglycan 4 (rhPRG4) (human, UniProt Q92954 25-1404). The experiment in a line: SPR. (In general: In SPR one partner is held on a chip, and binding of the other changes the refractive index at the surface.)

One molecule from publication PMC8491169 (Experimental eye research, 2021) can be followed below.

B1: recombinant human matrix metalloproteinase 9 (rhMMP-9) (enzyme)
chain: APRQRQSTLVLFPGDLRTNLTDRQLAEEYLYRYGYTRVAEMRGESKSLGPALLLLQKQLSLPETGELDSATLKAMRTPRCGVPDLGRFQTFEGDLKWHHHNITYWIQNYSEDLPRAVIDDAFARAFALWSAVTPLTFTRVYSRDADIVIQFGVAEHGDGYPFDGKDGLLAHAFPPGPGIQGDAHFDDDELWSLGKGVVVPTRFGNADGAACHFPFIFEGRSYSACTTDGRSDGLPWCSTTANYDTDDRFGFCPSERLYTQDGNADGKPCQFPFIFQGQSYSACTTDGRSDGYRWCATTANYDRDKLFGFCPTRADSTVMGGNSAGELCVFPFTFLGKEYSTCTSEGRGDGRLWCATTSNFDSDKKWGFCPDQGYSLFLVAAHEFGHALGLDHSSVPEALMYPMYRFTEGPPLHKDDVNGIRHLYGPRPEPEPRPPTTTTPQPTAPPTVCPTGPPTVHPSERPTAGPTGPPSAGPTGPPTAGPSTATTVPLSPVDDACNVNIFDAIAEIGNQLYLFKDGKYWRFSEGRGSRPQGPFLIADKWPALPRKLDSVFEERLSKKLFFFSGRQVWVYTGASVLGPRRLDKLGLGADVAQVTGALRSGRGKMLLFSGRRLWRFDVKAQMVDPRSASEVDRMFPGVPLDTHDVFQYREKAYFCQDRFYWRVSSRSELNQVDQVGYVTYDILQCPED
A word on the Kd: it is a measure of binding affinity in units of concentration. One may read the koff as the first-order rate constant of dissociation. What is called kon is a measure of how fast the partners come together. On to B1, for which the equilibrium dissociation constant (Kd) amounted to 42.1 nM, the off-rate constant (koff) is 0.000937 s⁻¹ and the kon stood at 22300 M⁻¹ s⁻¹.
